From patent US20060029947A1 (University of Texas, published 2006)

How the values were obtained:
[1] = biological target: T1, Bacillus anthracis protective antigen (PA) (Bacillus anthracis, UniProt P13423 30-764)
[2] = biological target: T1, Bacillus anthracis protective antigen …; experiment: SPR (BIACore 3000), PA on CM5 chip
[3] = biological target: T1, Bacillus anthracis protective antigen …; experiment: SPR, purified scAb on immobilized PA ('Affinity Measurements of Purified scAb')
[4] = biological target: T1, Bacillus anthracis protective antigen …; experiment: SPR (BIACore 3000)
[5] = biological target: T1, Bacillus anthracis protective antigen …; experiment: SPR (BIACore 3000), PA on CM5 chip, scAb in solution

T1 sequence (P13423 30-764 limits assumed): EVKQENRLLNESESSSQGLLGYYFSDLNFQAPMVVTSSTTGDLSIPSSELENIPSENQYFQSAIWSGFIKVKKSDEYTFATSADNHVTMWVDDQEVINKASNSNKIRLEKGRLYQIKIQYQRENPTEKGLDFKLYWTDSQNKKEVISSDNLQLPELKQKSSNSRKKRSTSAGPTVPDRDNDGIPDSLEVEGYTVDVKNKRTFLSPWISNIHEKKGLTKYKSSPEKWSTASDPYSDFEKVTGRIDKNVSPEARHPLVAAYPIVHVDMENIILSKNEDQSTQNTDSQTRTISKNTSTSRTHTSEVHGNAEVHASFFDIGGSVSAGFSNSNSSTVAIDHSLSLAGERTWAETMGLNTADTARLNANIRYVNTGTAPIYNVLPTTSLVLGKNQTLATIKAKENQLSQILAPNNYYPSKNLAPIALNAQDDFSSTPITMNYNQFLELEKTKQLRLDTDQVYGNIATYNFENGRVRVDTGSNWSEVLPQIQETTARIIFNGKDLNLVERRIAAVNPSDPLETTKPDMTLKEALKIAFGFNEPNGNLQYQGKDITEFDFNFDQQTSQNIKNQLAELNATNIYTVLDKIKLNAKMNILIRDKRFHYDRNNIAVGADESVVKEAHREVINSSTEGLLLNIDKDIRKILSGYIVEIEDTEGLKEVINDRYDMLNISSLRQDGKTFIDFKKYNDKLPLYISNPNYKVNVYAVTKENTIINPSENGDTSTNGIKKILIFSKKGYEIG

B1: NlpA-[14B7 scFv] (scFv)
scFv: CDQSSSDIQMTQTTSSLSASLGDRVTISCRASQDIRNYLNWYQQKPDGTVKLLIYYTSRLQSGVPSRFSGSGSGTDYSLTISNQEQEDIGTYFCQQGNTLPWTFGGGTKLEIKRGGGGSGGGGSGGGGSGGGGSEVQLQQSGPELVKPGASVKISCKDSGYAFSSSWMNWVKQRPGQGLEWIGRIYPGDGDTNYNGKFKGKATLTADKSSSTAYMQLSSLTSVDSAVYFCARSGLLRYAMDYWGQGTSVTVSS
[1]
  fold higher mean fluorescence intensity compared to controls: ~9 fold

B2: 14B7 scAb (scFv)
chain: DIQMTQTTSSLSASLGDRVTISCRASQDIRNYLNWYQQKPDGTVKLLIYYTSRLQSGVPSRFSGSGSGTDYSLTISNQEQEDIGTYFCQQGNTLPWTFGGGTKLEIKRGGGGSGGGGSGGGGSGGGGSEVQLQQSGPELVKPGASVKISCKDSGYAFSSSWMNWVKQRPGQGLEWIGRIYPGDGDTNYNGKFKGKATLTADKSSSTAYMQLSSLTSVDSAVYFCARSGLLRYAMDYWGQGTSVTVSS
[2]
  Kd: 4.3 nM
[3]
  koff: 0.003 s⁻¹
  kon: 710000 M⁻¹ s⁻¹

B3: M18 scAb (scFv)
chain: DIQMTQTTSSLSASLGDRVTVSCRASQDIRNYLNWYQQKPDGTVKFLIYYTSRLQPGVPSRFSGSGSGTDYSLTINNLEQEDIGTYFCQQGNTPPWTFGGGTKLEIKRGGGGSDGGGSGGGGSGGGGSEVQLQQSGPELVKPGASVKISCKDSGYAFNSSWMNWVKQRPGQGLEWIGRIYPGDGDSNYNGKFEGKAILTADKSSSTAYMQLSSLTSVDSAVYFCARSGLLRYAMDYWGQGTSVTVSS
[4]
  fold affinity improvement compared to the parental antibody 14B7: > 120 fold
[5]
  Kd: 0.035 nM
  koff: 4.2e-05 s⁻¹
[3]
  kon: 1.2e+06 M⁻¹ s⁻¹
